Target: PSD95 (mouse (endogenous in forebrain)) (UniProt Q62108)
Test: native gel or EMSA; BNP GluN1 immunoblot of forebrain deoxycholate extracts of WT and Glun2b^2A(CTR)/2A(CTR) mice; 1.5-NR band quantified relative to WT

Chain of UniProt Q62108 (Q62108 whole entry): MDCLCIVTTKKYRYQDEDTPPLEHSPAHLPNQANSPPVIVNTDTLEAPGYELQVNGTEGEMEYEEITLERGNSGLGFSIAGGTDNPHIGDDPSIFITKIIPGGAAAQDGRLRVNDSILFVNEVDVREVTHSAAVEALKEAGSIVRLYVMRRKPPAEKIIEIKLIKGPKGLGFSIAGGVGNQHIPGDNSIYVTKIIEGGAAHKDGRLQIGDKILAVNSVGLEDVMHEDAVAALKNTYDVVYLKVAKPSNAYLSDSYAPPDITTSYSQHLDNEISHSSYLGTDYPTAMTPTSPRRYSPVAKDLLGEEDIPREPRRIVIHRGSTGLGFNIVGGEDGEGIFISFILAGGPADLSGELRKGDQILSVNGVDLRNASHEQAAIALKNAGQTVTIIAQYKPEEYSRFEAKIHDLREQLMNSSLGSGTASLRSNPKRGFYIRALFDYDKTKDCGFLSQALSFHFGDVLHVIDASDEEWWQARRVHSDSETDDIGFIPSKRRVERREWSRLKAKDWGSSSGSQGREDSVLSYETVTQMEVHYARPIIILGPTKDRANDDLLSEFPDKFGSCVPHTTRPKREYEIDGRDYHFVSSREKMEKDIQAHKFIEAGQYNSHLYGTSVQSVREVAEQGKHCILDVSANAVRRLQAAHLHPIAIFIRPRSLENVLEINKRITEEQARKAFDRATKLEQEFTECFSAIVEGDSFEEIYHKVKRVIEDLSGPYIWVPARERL

GluN2B with its C-terminal domain replaced by that of GluN2A (Glun2b^2A(CTR)/2A(CTR) knock-in)
1.5-NR, % of WT: 6 % of WT
